Data published in the DeepSol protein solubility set.

test: soluble on expression in E. coli; label from the status in PepcDB or PDB records

Sequence | soluble on expression in E. coli
MRGVTPINPQKKIEADSNPVKESDYYEGERLTHLLDLIQRGIETSKLSNVNSLPEKIWLKKQIAIGINEVTRVLERMNPNNTSDQQQNPKQLQVVILVADCKPRMLTKHIPNLAASRNVPVLYVRDNKRASLRLGELVKLKTALAIGIKARGNDLNLLLKQILPRDS | soluble
MALPLLPGNSFNRNVGKEKFHKSQHWGFCNNVMMLVSDEKPGIGGEPLLGQKIKPKCSIYPKGDGSDVPSWVAFDKQVLSFDAYLEEEVLDKSQTNYRIRYYKIYFYPEDDTIQVNEPEVKNSGLLQGTSIRRHRITLPPPDEDQFYTVYHFNVGTEVVFYGRTFKIYDCDAFTRNFLRKIGVKVNPPVQCPEDPYMKIRREVVEHVEPLRPYESLDTLKQFLQYHGKILCFFCLWDDSVSMFGDRRELILHYFLCDDTIEIKELLPHSSGRDALKMFLRRSKLPKNCPPRVYQPGQITDRAVLNSYGDFIKNQADGYLFDRYKLGKVDQEFYKDSDLSLGVTINVWGRKVLLYDCDEFTKSYYKSKYGIENFTSVSCKPPSPPPKIERKFPPYNGFGSEEDSLRNCIDLKPTPHRRNFKKFMEKDSYGSKSNILRFFAKLVTDKCVDLDRMFVISYYLGDDTISVFEPIERNSGIAGGMFLKRSRVKKPGQEVFKSELSEYIKAEELYIGVTVNVNGYLFRLLNADEYTLNYMEQNTDKYPFSNLKLALQKLKQEEGKSRELKQVFKAADSKHTNMVDYNTFRDILMSLTVGNLAEQEFVTIARHYRVPEGTCSDMDFLIALAHEKFKKNMFENFDTFIYSCVYEDREKKNVLPTKDIKRLCKSSRLPLSDDLLESLLSRFEDSEKQIDYKSFFSALNWRKNPVPELQPASYLKERCEDVWLGMPSPIPAKYIDYWTFLKDAFGLEEE | soluble
FLILLRKTLEQLQEKDTGNIFSEPVPLSEVPDYLDHIKKPMDFFTMKQNLEAYRYLNFDDFEEDFNLIVSNCLKYNAKDTIFYRAAVRLREQGGAVLRQARRQAEKMG | soluble
MGSDKIHHHHHHMMQIYLVGGAVRDQLLGLPIKDRDWLVVGSTAEELLSQGYQQVGKDFPVFLNPNTREEYALARTERKSGTGYTGFICDFNPDITLEQDLMRRDLTINAIAQDMAGQYHDPYNGIADLKKGILRHISPAFAEDPLRVLRVARFAARYHQLGFKIAPNTLALMKKIANNGELRQLSPERVWQETEKALHEQDPQVYFAILQKIDALKVLCPEISVFNSDSIQYRSDMTDFVHAMPILKQTTLLTEKTDYHKSAVRFAALCHDVGKALSTANIPPYSHDNKITSIAYLRNVCQRFKVPNYVQELAELTCQYHSHIHHALALHTKTILTLFNKLDVWRKPKRFEELMLVCLADSLTQTEMNYTDYPQYKFLLCLYQAALAVDVQQIISEGFQHKAIRVELDRRREIAIQIKKQQFIEQNLT | not soluble
GSSWSAINPEYAARMRIQNRFKTGLDIAKYTAAIMRKDMAEYDADSSVYTQSLGCWHGFIGQQKLISIKKHLKTTNKRYLYLSGWMVAALRSDFGPLPDQSMHEKTAVSGLIEELYTFLRQADARELDLLFTGLDAARAAGDKAKEAELLAQIDNFETHVVPIIADIDAGFGNAEATYLLAKKMIEAGACCIQIENQVSDEKQCGHQDGKVTVPHIDFLAKINAVRYAFLELGVDDGVIVARTDSLGAGLTKQIAVTNEPGDLGDLYNSFLDCEEISESELGNGDVVIKREGKLLRPKRLASNLFQFRKGTGEDRCVLDCITSLQNGADLLWIETEKPHVGQIKAMVDRIREVIPNAKLVYNNSPSFNWTLNFRQQVFDAFVAEGKDVSAYDRNKLMSVEYDDTELAKVADEKIRTFQRDGSAHAGIFHHLITLPTYHTAALSTDNLAKGYFADEGMLAYVKGVQRQELRQGIACVKHQNMAGSDIGDNHKEYFAGEAALK | not soluble
MLAKDSSLTRTGKGEIVDKDSSFTWYVGTIDEANAFIGLARVFSKDEKVRETLLEIQKMLFLVGAEPSLQKLSEKDLEWMLERVEEFERSVKKPHCFIILEKDESTAFLSVARAVVRRAERQAVRLYREGKARLLVVEWLNKLSYLLYLMILKEGGGDFEEI | not soluble
MNSGPKVSVIMGIYNCERTLAESIESILSQSYKNWELILCDDASTDGTLRIAKQYAAHYSDRIKLIQNKTNKRLAASLNHCLSHATGDYIERQDGDDLSFPRRLEKQVAFLEKHRHYQVVGTGMLVFDEFGVRGARILPSVPEPGIMAKGTPFCHGTIMMRASAYRTLKGYRSVRRTRRMEDIDLWLRFFEEGFRGYNLQEALYKVREDSDAFKRRSFTYSIDNAILVYQACRRLKLPLSDYIYIAKPLIRAFMPAAVMNRYHKKRVMNQKEGLVKHELEHHHHHH | not soluble
MSEIALEAWGEHEALLLKPPRSPLSIPPPKPRTAVLFPRREGFYTELGGYLPEVRLRFETYGTLSRRRDNAVLVFHALTGSAHLAGTYDEETFRSLSPLEQAFGREGWWDSLVGPGRILDPALYYVVSANHLGSCYGSTGPLSLDPRTGRPYGRDFPPLTIRDLARAQARLLDHLGVEKAIVIGGSLGGMVALEFALMYPERVKKLVVLAAPARHGPWARAFNHLSRQAILQDPEYQKGNPAPKGMALARGIAMMSYRAPEGFEARWGAEPELGETYLDYQGEKFLRRFHAESYLVLSRAMDTHDVGRGRGGVEEALKRLRAIPSLFVGIDTDLLYPAWEVRQAAKAAGARYREIKSPHGHDAFLIETDQVEEILDAFLP | soluble
MGSDKIHHHHHHMKLVKTGILPLDTQLGGGMPAGSVVSVFEEPGAGADVLSYHFTVEGATHGENVFYLATDDSSEEIREYINLYFDLDEAVWENITLLSLRASMQQEEGEKDAKDFLRKTIYDPIGGIKTILSHEEFERVVINNFTYFLANYPIEDVIALIDVLSNYAKRNQSVVMLLVTKGMFDPRTETTVKHYSDGVIELTLKEVENEVQRRLKVVKFKGILVPKAILRYELTDKGIKMESVMRVL | not soluble
MDDLADCREVFAYFDSKGDERISVQQVGDVLRALGQNPTEAEIHKCVGSFDREARLSFEDFVPIFQSVSKNREKHTVEEFVEGLSHFDKEGNGMINVAELRHLLTTLGERLSDEDVDQLLSGHNDSHGNVNISDFVRAVMNS | soluble
MGSDKIHHHHHHMLRRIKAEQLQVGMFVARLGGPWHARAFRRSRFLVTSEEQVGEIRSSGVDEVWIDILKGRNAPTPQAATSPWETPEPAPALATANSLPAEFGLARELLQSGKSVIGSMFADVRMGRALEVSGALLLVDSASQSLSRHSQALIALARLKARDDYSYMHAFAVCALMVAVGRTMELPPEEVRDLGLAGLLHDIGKLTLPEAVLHKPTSRRPGEDEEIKRHPSAGYRILNEARLNANIVLDVCVHHHERVDGRGYPFGLVGRELSVHARIAAICDTYDSLTSSRPGHQQWSPARAMEYMAVRVDTLFDSRVFKAFTRTVGIYPLGTVLRLRSNRLAVVCAQHESEPLRPRVMAFYSVSASSALTPEVIDLSTSDDTVVAFEDPADWGYTDEQLLAIYAGQGQAGAAQAAAMAMPAA | not soluble
MRGSVPSVREIETLLSQLPWRQFQSPRVHLEQYTTPVHLAARIAHHVALCIDEDERRSVQAVDLGTGTGILALALCLAGLNHVLGVDVDSEALELARANAAALWELCPQSVGAVLEFAAVDVQPNSLALAPKSFDVAVLNPPFGTRQRSADIAFLDVACHLSRRFVYSLHKSSTRSYLSRRLERFGCTAQVYARLRFDLPATYVFHRERAVDIDVDLWQIEVKR | not soluble
MSGEVGSNECLVSTNEVQEDSPAVTESSSANGSSPVRRGRGRPPKGTKVPKVKPAPKPYSGAPRGRPRKSDQVAKSPVAKSPVASSSADASPKRSRGAPKSYAEDVAATKPAKTDVATPALAALTGEKKGRGRPKKN | soluble
MGSDKIHHHHHHMNQDLLHKYFKGETSVDEEKRILNWVDESEENRKTLQKERMLFDIALFTDSKRKMREKAGAGARIIPMLRWSARIAAAVIVAVSCGFLINEYQYDKLAQLQTVTVPAGQRAQITLADGTKVWLNSESTLSYRSDFGRRDRDVELDGEAYFEVAKNKEIPFYVNTETNQVRVVGTHFNVCAYKGSNEFETTLVEGIVDIYAYDNERPLTRLTKNEFFGSYQGKYKKAVLPSYDYLRWREGLYCFDDSPFSCILTKLEKYYNVKITVENPKVLNYRCTGKFKEQDGVEHILKVIQKDHPFTYSISEEGDSIRIE | not soluble
MGSDKIHHHHHHMKNAAISDSTLVSQYIQGNEEAFAELIKRHKSKVYSTIYLIVKDRYLAEDLLQDVFIKVIHKMKGGQYNDEGKFLPWVVRIAHNLAIDYFRRNKRYPTIVMDEGMNIFNSLNFSEDSTESIQIKGENEALIRSLIHKLPESQREVVLMRHFSDMSFQEIADSTGVSINTALGRMRYALINLRKELTKQPKPIVYDKNVYPK | not soluble
NIQGRTARQTDYLFQIKKHDITFGIGPAGTGKTYLAVACAVDALERELVSRVILVRPAVEAGERLGFLPGDMVQKVDPYLRPLYDALYDLMGFEKVSKHFERGIIEIAPLAFMRGRTLNQSFIILDEAQNTTAEQMKMFLTRIGFGSKAVITGDITQIDLPKHQKSGLVEAERVLKNVNGIAFTRFRTEDVVRHPLVQRIVDAYEKYAPDK | not soluble
AMMIGIIGAMEEEVTILKNKLTQLSEISVAHVKFYTGILKDREVVITQSGIGKVNAAISTTLLINKFKPDVIINTGSAGALDESLNVGDVLISDDVKYHDADATAFGYEYGQIPQMPVAFQSSKPLIEKVSQVVQQQQLTAKVGLIVSGDSFIGSVEQRQKIKKAFPNAMAVEMEATAIAQTCYQFNVPFVVVRAVSDLANGEAEMSFEAFLEKAAVSSSQTVEALVSQL | soluble
MSRFQTLTPASLSREAFIEAFADIYEHSPWVAEKAYDLGIDDSLNDIEGLHQRMADILLSASREAQLALINAHPDLAGKAAIRGELTASSTSEQAGAGIHECSAEEFARFTELNDAYKARFGFPFIKAVKGSNRHQILAAFEERIQHSADEEFATALAEINKIALFRLQQLLEHHHHHH | soluble
MRISSLLFLTFLAGIVQAQDFLAMFKPFLGGGGGGGNPFANPQAIGGLFQQFAGGNGGGFGQLLAGAMAPKPAPAAAGPRSAPAPTNEDYNTDIDVPAPKAKARAAPTPRRAQGDDDDNIDMSLTRLG | not soluble
MAPSCLKMAHMRLLLTSFGHDHIRDFVRGTVAYIPDATRLFADSPEAAPFMETERNMLREHGLSIRELPISTSTPEEVDRVLGEVDGVYVAGGETFDLMWLLRSTGNDEVLIKHVRAGLPYIGTSAGAVIAGPSIEPISFLDSPDVAPNLSDYSGLGLCEHVVVPHAGGTIPQFPIDVFAETVRTYGAEFPLVLLKDGQALLIDDHGVHLILEHHHHHH | soluble
MGSSESIVKLNVGGTVFVTLKSTLTKHHGIFKALVKTEMPAEDGDSFFIDRSPKHFETVLNYIRSGDVDLPDSENELKELKREAEYYSLEKLATLCQSSMPKIKSYKTADELLNMIANTKKVVVVIHYLAYKNQLHTIPLGFKFSEFVERNKDKAEVFIYEIKDEEELKDKPYVDDPNRVWSFCIFNSEWSENYPLKSLRDIQVQLDCFGDF | not soluble
MSLFLMDQYIKVDITVEENEQERIMAELLAIGFDSFAEHANMLEAYVEKSAFSEADLKEVLHEVNPAYTYTFAEMPNINWNEEWEKNFDPLVIANQCYVRASFHAERPEFQYEVVINPKMSFGTGHHAEGHHHHHH | soluble
SESETRVKSVRTGRKPIGNPEDEQETSKPSDDEFLRGKRVLVVDDNFISRKVATGKLKKMGVSEVEQCDSGKEALRLVTEGLTQREEQGSVDKLPFDYIFMDCQMPEMDGYEATREIRKVEKSYGVRTPIIAVSGHDPGSEEARETIQAGMDAFLDKSLNQLANVIREIESKR | not soluble
TTDPILFMLSLVQQCRLSPKLAYGVIAGFRFLPLLKDEVQLIQQAHKIRGGAAESGIINKISALKRYTIPLLASAIRKAERTALAMESKGFTGSRNRTYYRTLSVNRRD | not soluble
